The values below come from paper PMC9482650, “Quantitative fragmentomics allow affinity mapping of interactomes” (Nature Communications, 2022).

Some targets named below: LMO7, Q8WWI1; NHERF2_1, Q15599; NHERF4_3, Q86UT5; MAGI3_5, Q5TCQ9; MAGI1_4, Q96QZ7; MAGI3_3, Q5TCQ9; PARD3_1, Q8TEW0; AHNAK2, Q8IVF2.
Common to all, as to assay: holdup assay
Set-up in all cases: key: below the threshold = too weak to quantify, mostly under pKd 3.1 to 4
Holding throughout (details): plain residues with an end cap or a label only (N-terminal biotin on a linker: ttds)

A further assay addresses T1, RGS12, O14924.
T1 sequence (O14924 17-108, limits assumed, looked up): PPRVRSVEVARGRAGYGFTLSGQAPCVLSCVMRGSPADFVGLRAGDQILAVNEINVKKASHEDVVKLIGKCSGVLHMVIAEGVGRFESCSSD

In a further assay the target is T2, SNTB2, Q13425.
T2 sequence (Q13425 110-208, limits assumed, looked up): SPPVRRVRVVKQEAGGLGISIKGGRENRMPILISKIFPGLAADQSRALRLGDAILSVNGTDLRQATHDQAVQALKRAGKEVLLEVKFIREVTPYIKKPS

The next assay concerns the target T3, GRIP1_1, Q9Y3R0.
T3 sequence (Q9Y3R0 48-146, limits assumed, looked up): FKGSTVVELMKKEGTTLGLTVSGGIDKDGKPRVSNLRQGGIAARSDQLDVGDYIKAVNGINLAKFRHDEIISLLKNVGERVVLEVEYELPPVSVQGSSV

The next assay deals with T4, PARD6G, Q9BYG4.
T4 sequence (Q9BYG4 153-261, limits assumed, looked up): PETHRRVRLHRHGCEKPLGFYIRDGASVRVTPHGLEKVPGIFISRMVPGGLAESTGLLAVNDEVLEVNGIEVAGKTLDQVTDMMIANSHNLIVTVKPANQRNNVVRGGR

A further assay concerns the target T5, MPDZ_3, O75970.
T5 sequence (O75970 372-473, limits assumed, looked up): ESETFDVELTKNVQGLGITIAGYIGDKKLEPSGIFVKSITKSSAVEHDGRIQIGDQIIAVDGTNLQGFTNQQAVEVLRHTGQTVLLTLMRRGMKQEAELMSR

In the next assay the target is T6, PDZD11, Q5EBL8.
T6 sequence (Q5EBL8 42-139, limits assumed, looked up): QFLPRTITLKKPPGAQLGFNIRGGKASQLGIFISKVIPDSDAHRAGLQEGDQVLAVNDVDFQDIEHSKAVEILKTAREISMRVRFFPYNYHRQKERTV

The target of the next assay is T7, PDZD2_4, O15018.
T7 sequence (O15018 723-823, limits assumed, looked up): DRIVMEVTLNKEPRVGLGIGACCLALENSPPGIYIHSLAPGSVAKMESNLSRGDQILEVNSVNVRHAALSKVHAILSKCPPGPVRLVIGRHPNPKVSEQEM

For another assay, the target named is T8, PDZD2_3, O15018.
T8 sequence (O15018 581-682, limits assumed, looked up): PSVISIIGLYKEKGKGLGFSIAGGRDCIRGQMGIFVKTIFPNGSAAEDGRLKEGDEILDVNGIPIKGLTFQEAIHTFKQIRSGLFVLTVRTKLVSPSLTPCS

A further assay deals with T9, MLLT4, P55196.
T9 sequence (P55196 1002-1103, limits assumed, looked up): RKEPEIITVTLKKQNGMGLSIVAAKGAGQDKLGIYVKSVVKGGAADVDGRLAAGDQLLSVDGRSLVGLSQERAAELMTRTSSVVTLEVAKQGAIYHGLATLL

The target of another assay is T10, PDZD7_2, Q9H5P4.
T10 sequence (Q9H5P4 205-303, limits assumed, looked up): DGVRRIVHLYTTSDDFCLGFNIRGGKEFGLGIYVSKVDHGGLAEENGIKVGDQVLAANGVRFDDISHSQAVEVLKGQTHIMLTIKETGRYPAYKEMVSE

The next assay concerns the target T11, MPDZ_13, O75970.
T11 sequence (O75970 1982-2070, limits assumed, looked up): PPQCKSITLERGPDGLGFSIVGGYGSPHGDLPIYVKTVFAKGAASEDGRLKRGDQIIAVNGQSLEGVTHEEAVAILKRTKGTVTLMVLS

In a further assay the target is T12, PDZD2_1, O15018.
T12 sequence (O15018 80-192, limits assumed, looked up): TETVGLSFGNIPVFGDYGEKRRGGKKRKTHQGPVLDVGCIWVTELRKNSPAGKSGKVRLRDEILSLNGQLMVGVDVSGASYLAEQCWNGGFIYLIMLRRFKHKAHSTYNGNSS

The target of a further assay is T13, SHROOM3, Q8TF72.
T13 sequence (Q8TF72 20-120, limits assumed, looked up): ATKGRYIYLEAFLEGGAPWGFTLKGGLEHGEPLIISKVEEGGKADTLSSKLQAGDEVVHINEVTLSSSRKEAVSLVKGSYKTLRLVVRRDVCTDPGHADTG

The target in the next assay is T14, SIPA1L3, O60292.
T14 sequence (O60292 961-1052, limits assumed, looked up): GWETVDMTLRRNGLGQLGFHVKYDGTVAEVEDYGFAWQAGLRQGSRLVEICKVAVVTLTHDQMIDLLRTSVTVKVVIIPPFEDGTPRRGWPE

Chain of NHERF2_1, Q15599 (Q15599 9-91): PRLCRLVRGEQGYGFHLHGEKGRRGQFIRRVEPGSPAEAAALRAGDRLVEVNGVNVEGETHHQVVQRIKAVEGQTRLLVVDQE
Chain of NHERF4_3, Q86UT5 (Q86UT5 325-412): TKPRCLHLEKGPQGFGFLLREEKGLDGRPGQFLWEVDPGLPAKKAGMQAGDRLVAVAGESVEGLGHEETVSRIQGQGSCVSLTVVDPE
Chain of PARD3_1, Q8TEW0 (Q8TEW0 264-372): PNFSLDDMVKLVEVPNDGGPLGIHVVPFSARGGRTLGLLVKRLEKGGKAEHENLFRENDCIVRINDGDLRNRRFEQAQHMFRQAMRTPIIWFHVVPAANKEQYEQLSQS
Chain of AHNAK2, Q8IVF2 (Q8IVF2 108-193): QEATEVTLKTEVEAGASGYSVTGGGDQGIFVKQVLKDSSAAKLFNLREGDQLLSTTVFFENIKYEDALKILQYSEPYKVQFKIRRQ
Chain of MAGI3_5, Q5TCQ9 (Q5TCQ9 847-941): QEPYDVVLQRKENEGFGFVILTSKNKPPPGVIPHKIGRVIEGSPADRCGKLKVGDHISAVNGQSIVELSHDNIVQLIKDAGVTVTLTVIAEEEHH
Chain of MAGI1_4, Q96QZ7 (Q96QZ7 other isoform, or with tags, fused parts or gaps): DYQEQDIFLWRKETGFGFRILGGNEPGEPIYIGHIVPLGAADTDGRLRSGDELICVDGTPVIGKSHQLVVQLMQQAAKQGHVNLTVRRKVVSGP
Chain of MAGI3_3, Q5TCQ9 (Q5TCQ9 572-655): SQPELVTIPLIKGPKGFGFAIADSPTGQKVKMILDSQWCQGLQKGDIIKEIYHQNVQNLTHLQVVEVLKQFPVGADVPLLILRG
Chain of LMO7, Q8WWI1 (Q8WWI1 1037-1138): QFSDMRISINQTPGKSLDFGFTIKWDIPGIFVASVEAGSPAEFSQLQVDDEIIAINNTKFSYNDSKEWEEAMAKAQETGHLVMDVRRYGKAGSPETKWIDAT

Broadly, the pKd is the negative decadic logarithm of the Kd, by convention in mol/L. On to SHSSKGETAV [FZD7, O75084], for which the pKd result is “below the threshold” in the assay with RGS12, O14924; “below the threshold” with SNTB2, Q13425; “below the threshold” in the assay with GRIP1_1, Q9Y3R0; “below the threshold” with PARD6G, Q9BYG4; “below the threshold” in the assay with LMO7, Q8WWI1; “below the threshold” in the assay with MPDZ_3, O75970. Besides, the pKd entry is “below the threshold” in the assay with NHERF2_1, Q15599; “below the threshold” with PDZD11, Q5EBL8; “below the threshold” with NHERF4_3, Q86UT5; “below the threshold” in the assay with PDZD2_4, O15018; “below the threshold” in the assay with PDZD2_3, O15018; “below the threshold” with MAGI3_5, Q5TCQ9. For the same molecule, the pKd result with MLLT4, P55196 is “below the threshold”; in the assay with PDZD7_2, Q9H5P4 it was “below the threshold”; with MAGI1_4, Q96QZ7 it was “below the threshold”; in the assay with MAGI3_3, Q5TCQ9, 4.54; in the assay with MPDZ_13, O75970, “below the threshold”; with PDZD2_1, O15018, “below the threshold”. For the same molecule, the pKd result was “below the threshold” in the assay with PARD3_1, Q8TEW0; “below the threshold” with SHROOM3, Q8TF72; 4.41 in the assay with AHNAK2, Q8IVF2; “below the threshold” with SIPA1L3, O60292.
Regarding SRSRRRETAL [HPV33-E6, P06427], the pKd with RGS12, O14924 is 4.5; with SNTB2, Q13425 it was 4.56; with GRIP1_1, Q9Y3R0 it was “below the threshold”; with PARD6G, Q9BYG4 it was “below the threshold”; with LMO7, Q8WWI1, “below the threshold”; with MPDZ_3, O75970, “below the threshold”. Moreover, the pKd result is “below the threshold” with NHERF2_1, Q15599; “below the threshold” with PDZD11, Q5EBL8; “below the threshold” in the assay with NHERF4_3, Q86UT5; “below the threshold” with PDZD2_4, O15018; “below the threshold” with PDZD2_3, O15018; “below the threshold” in the assay with MAGI3_5, Q5TCQ9. Further, the pKd result with MLLT4, P55196 was “below the threshold”; with PDZD7_2, Q9H5P4, 4.42; in the assay with MAGI1_4, Q96QZ7, “below the threshold”; with MAGI3_3, Q5TCQ9, “below the threshold”; with MPDZ_13, O75970, “below the threshold”; with PDZD2_1, O15018, “below the threshold”. In addition, the pKd result in the assay with PARD3_1, Q8TEW0 is reported as “below the threshold”; with SHROOM3, Q8TF72 it was “below the threshold”; with AHNAK2, Q8IVF2, “below the threshold”; with SIPA1L3, O60292, “below the threshold”.
As for KLVIKTETTV [RASSF6, Q6ZTQ3], the pKd entry is “below the threshold” in the assay with RGS12, O14924; 4.2 with SNTB2, Q13425; “below the threshold” in the assay with GRIP1_1, Q9Y3R0; “below the threshold” with PARD6G, Q9BYG4; “below the threshold” with LMO7, Q8WWI1; “below the threshold” in the assay with MPDZ_3, O75970. The pKd result in the assay with NHERF2_1, Q15599 is listed as “below the threshold”; in the assay with PDZD11, Q5EBL8 it was “below the threshold”; with NHERF4_3, Q86UT5, “below the threshold”; with PDZD2_4, O15018 it was “below the threshold”; with PDZD2_3, O15018, “below the threshold”; in the assay with MAGI3_5, Q5TCQ9, “below the threshold”. The pKd entry with MLLT4, P55196 is listed as “below the threshold”; with PDZD7_2, Q9H5P4, “below the threshold”; with MAGI1_4, Q96QZ7, “below the threshold”; with MAGI3_3, Q5TCQ9 it was “below the threshold”; with MPDZ_13, O75970, “below the threshold”; in the assay with PDZD2_1, O15018, “below the threshold”. The pKd entry in the assay with PARD3_1, Q8TEW0 is on record as “below the threshold”; with SHROOM3, Q8TF72, “below the threshold”; with AHNAK2, Q8IVF2 it was “below the threshold”; with SIPA1L3, O60292, “below the threshold”.
PSRDRKETSI [RALBP1, Q15311]: the pKd entry in the assay with RGS12, O14924 is “below the threshold”; with SNTB2, Q13425, 3.94; with GRIP1_1, Q9Y3R0, “below the threshold”; in the assay with PARD6G, Q9BYG4, “below the threshold”; with LMO7, Q8WWI1, “below the threshold”; with MPDZ_3, O75970 it was “below the threshold”. The pKd result in the assay with NHERF2_1, Q15599 is reported as “below the threshold”; in the assay with PDZD11, Q5EBL8, “below the threshold”; with NHERF4_3, Q86UT5, “below the threshold”; with PDZD2_4, O15018, “below the threshold”; with PDZD2_3, O15018, “below the threshold”; with MAGI3_5, Q5TCQ9 it was “below the threshold”. The pKd entry with MLLT4, P55196 is “below the threshold”; with PDZD7_2, Q9H5P4, “below the threshold”; with MAGI1_4, Q96QZ7, “below the threshold”; in the assay with MAGI3_3, Q5TCQ9 it was “below the threshold”; in the assay with MPDZ_13, O75970, “below the threshold”; in the assay with PDZD2_1, O15018 it was “below the threshold”. For the same molecule, the pKd result in the assay with PARD3_1, Q8TEW0 is on record as “below the threshold”; with SHROOM3, Q8TF72 it was “below the threshold”; in the assay with AHNAK2, Q8IVF2, “below the threshold”; with SIPA1L3, O60292, “below the threshold”.
